Results as given in patent US20180362643A1 (Amgen, published 2018).
Each block holds one binder with its values, some of them ahead of it. Ends that are not written are not given here.

How the values were obtained:
[1] = biological target: T1, PACAP38 peptide fragment 6-35 (human); assay: SPR (Biacore 3000), solution competition: antibody pre-incubated 2 h with the peptide at 1:200 molar ratio (Ab:peptide), then injected over immobilised full-length PACAP38; readout % inhibition of antibody binding (filing counts >50 % as reactive)
T1 construct: also called peptide No. 4
T1 peptide: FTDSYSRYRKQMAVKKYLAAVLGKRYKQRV

[2] = biological target: T2, PACAP38 peptide fragment 11-27 (human); assay: as above
T2 construct: also called peptide No. 8
T2 peptide: SRYRKQMAVKKYLAAVL

[3] = biological target: T3, PACAP38 peptide fragment 4-27 (human); assay: as above
T3 construct: also called peptide No. 9
T3 peptide: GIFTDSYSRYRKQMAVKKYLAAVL

[4] = biological target: T4, amino terminal PACAP38 peptide (amino acids 1-13) (human); assay: ELISA screen of B-cell culture supernatant; N-terminal peptide at 500 ng/mL
T4 construct: also called N-terminal Peptide; N-terminal PACAP peptide
T4 peptide: HSDGIFTDSYSRY

31-38 = biological target: T5, 31-38 (ends and bridges not checked); assay: SPR (Biacore 3000), solution competition: antibody pre-incubated 2 h with the peptide at 1:200 molar ratio (Ab:peptide), then injected over immobilised full-length PACAP38; readout % inhibition of antibody binding (filing counts >50 % as reactive)
T5 construct: also called PACAP38 peptide fragment 31-38; peptide No. 5
T5 peptide: YKQRVKNK

30-37 = biological target: T6, 30-37; assay: as above
T6 construct: also called PACAP38 peptide fragment 30-37; peptide No. 19
T6 peptide: RYKQRVKN

binding result [1]: binds | binding result [2]: binds | binding result [3]: binds
B1: mAb6 (antibody, V domains shown)
VH: QLEESGGGLVQPGASLTLTCTTSGFSLSDNYLCWVRQAPGRGLEWVACIGIVLRSTGATYYASWAEGRFTISKTSPTTVTLEMTSLTAADTATYFCALDLGYGGPLWGPGTLVTVSS
VL: AQVLTQTPASVSAAVGGTVTINCQASQSVYNNKNLAWYQQKPGQPPKLLIYFSSTLASGVPSRFRGSGSGTQFTLTISGVQCGDAATYYCLGEFGSIWAFGGGTEVVVKG
notes: Rabbit monoclonal antibody (SLAM), recombinant; also called monoclonal anti-PACAP antibody 6; 6 (c55)

Optical Density [4]: 0.06 OD | binding result (31-38): binds | binding result (30-37): binds
B2: mAb2 (antibody, V domains shown)
VH: QSLEESGGGLVQPEGSLTLTCTASGFSFNSSSYMCWVRQAPGKGLEWIGCIFTGSSGNTYYATWAQGRFTISKTSTTVTLEMTSLTAADTATYFCARDRAYFLVGYFYATYYFDLWGPGTLVTVSS
VL: DVVMTQTPSPVSAQVGGTVTINCQASESIDSDLSWYQQKPGQPPKLLIYRTFTLESGVPSRFKGSGSGTDYTLTISDLECADAAIYYCQCTDGSSISGSYGWDAFGGGTEVVVKG
notes: Rabbit monoclonal antibody (SLAM), recombinant; also called monoclonal anti-PACAP antibody 2; 2 (c81)
